Measured values published in paper PMC3337327, “Crystal structures from the Plasmodium peroxiredoxins: new insights into oligomerization and product binding” (BMC Structural Biology, 2012).

Legend:
[1] = biological target: Plasmodium knowlesi thioredoxin peroxiredoxin 1 (PkTrx-Px1), full-length His6-tagged construct (P. knowlesi H); assay: LC-MS-TOF mass spectrometry; purified enzyme as isolated, without reducing agent; Agilent LC-MS-TOF, positive ion mode, desalted on a Poroshell 300-SB-C3 column; shows the covalent (disulfide-linked) dimer
[2] = biological target: Plasmodium vivax thioredoxin peroxiredoxin 1 (PvTrx-Px1), full-length His6-tagged construct (P. vivax Salvador I); assay: crystal structure; PvTrx-Px1_ox, His6-tag intact, 8 mg/mL in 10 mM HEPES pH 7.5, 500 mM NaCl; 5% PEG 4K, NaAc pH 4.6, 18 C; 2.5 A
[3] = biological target: Plasmodium vivax thioredoxin peroxiredoxin 1 (PvTrx-Px1), full-length His6-tagged construct (P. vivax Salvador I); assay: crystal structure; PvTrx-Px1_red, His6-tag intact, protein treated with 5 mM TCEP; 19% PEG 3350, 150 mM lithium citrate, 18 C; 2.45 A
[4] = biological target: Plasmodium vivax thioredoxin peroxiredoxin 1 (PvTrx-Px1), full-length His6-tagged construct (P. vivax Salvador I); assay: LC-MS-TOF mass spectrometry; purified enzyme as isolated, without reducing agent; Agilent LC-MS-TOF, positive ion mode, desalted on a Poroshell 300-SB-C3 column; shows the covalent (disulfide-linked) dimer
[5] = biological target: Plasmodium yoelii 1-Cys peroxiredoxin of the Prx6 subfamily (PyPrx6), full-length His6-tagged construct (P. yoelii 17XNL); assay: SEC; calibrated Superdex S200 gel filtration column, 10 mM HEPES pH 7.4, 500 mM NaCl; PyPrx6 eluted at 220 mL
[6] = biological target: Plasmodium yoelii 1-Cys peroxiredoxin of the Prx6 subfamily (PyPrx6), full-length His6-tagged construct (P. yoelii 17XNL); assay: crystal structure; PyPrx6-SO2H with glycerol bound, His6-tag intact, 15 mg/mL; 23% PEG 3350, 0.1 M Bis-Tris pH 5.5, 200 mM (NH4)2SO4, 5% ethylene glycol, 20 C; 2.3 A
[7] = biological target: Plasmodium yoelii thioredoxin peroxiredoxin 1 (PyTrx-Px1), full-length His6-tagged construct (P. yoelii 17XNL); assay: LC-MS-TOF mass spectrometry; purified enzyme as isolated, without reducing agent; Agilent LC-MS-TOF, positive ion mode, desalted on a Poroshell 300-SB-C3 column; shows the covalent (disulfide-linked) dimer
[8] = biological target: Plasmodium yoelii thioredoxin peroxiredoxin 1 with a 6-residue N-terminal truncation (PyTrx-Px1: Q7-L195) (P. yoelii 17XNL); assay: crystal structure; PyTrx-Px1_ox, His6-tag intact, 4.3 mg/mL; 1.6 M ammonium sulfate, 100 mM HEPES pH 6.8, 200 mM NaAc, 20 mM NaBr, 5% ethylene glycol, 18 C; 2.3 A
[9] = biological target: Plasmodium yoelii thioredoxin peroxiredoxin 1 with a 6-residue N-terminal truncation (PyTrx-Px1: Q7-L195) (P. yoelii 17XNL); assay: LC-MS-TOF mass spectrometry; purified enzyme as isolated, without reducing agent; Agilent LC-MS-TOF, positive ion mode, desalted on a Poroshell 300-SB-C3 column; shows the covalent (disulfide-linked) dimer
[10] = biological target: the molecule itself; assay: as above

For “Plasmodium knowlesi thioredoxin peroxiredoxin 1 (PkTrx-Px1), full-length His6-tagged construct (enzyme)”, which stoichiometry N [1] is on record?
Its stoichiometry N is 2.

How did the stoichiometry N [2] turn out when “Plasmodium vivax thioredoxin peroxiredoxin 1 (PvTrx-Px1), full-length His6-tagged construct (enzyme)” was run?
The stoichiometry N was 10.

What about the stoichiometry N [3] of the same molecule?
The stoichiometry N was 10.

What about the stoichiometry N [4] of the same molecule?
The stoichiometry N was 2.

Which stoichiometry N [5] does the source give for “Plasmodium yoelii 1-Cys peroxiredoxin of the Prx6 subfamily (PyPrx6), full-length His6-tagged construct (enzyme)” here?
The stoichiometry N was 2.

And the stoichiometry N [6]?
Its stoichiometry N is 2.

How did the stoichiometry N [7] turn out when “Plasmodium yoelii thioredoxin peroxiredoxin 1 (PyTrx-Px1), full-length His6-tagged construct (enzyme)” was run?
The stoichiometry N was 2.

How did the stoichiometry N [8] turn out when “Plasmodium yoelii thioredoxin peroxiredoxin 1 with a 6-residue N-terminal truncation (PyTrx-Px1: Q7-L195) (domain or fragment)” was run?
Its stoichiometry N is 8.

And the stoichiometry N [9]?
The stoichiometry N was 2.

B1: Plasmodium falciparum thioredoxin peroxiredoxin 1 (PfTrx-Px1), full-length His6-tagged construct (enzyme, P. falciparum 3D7, UniProt Q8IL80 1-195, looked up)
chain: MASYVGREAPYFKAEAVFADNTFGEVNLHDFIGKKYVLLYFYPLDFTFVCPSEIIALDKALDAFKERNVELIGCSVDSKYTHLAWKKTPLTKGGIGNIQHTLISDITKSISRSYNVLFGDSVSLRAFVLIDKQGVVQHLLVNNLAIGRSVEEVLRIIDAVQHHEQHGDVCPANWKKGKVAMKPSEEGVSEYLSKL
modifications: intermolecular disulfide between the peroxidatic and resolving cysteines (C50, C170) in the enzyme as purified
notes: thioredoxin peroxiredoxin 1 (Trx-Px1, 2-Cys Prx, Prx1 subfamily), P. falciparum 3D7, PlasmoDB PF14_0368, full length; N-terminal Met of the tag is clipped in E. coli; also called Trx-Px1 from P. falciparum
For B1, which “stoichiometry N” value [10] is on record?
Its value is 2.
